Experimental data from patent US20210230570.
Residue numbers refer to the chain shown, from its start. Numbers in names are those of the source.

B1: FIXa-Y155F/K247N/N249S/R318Y/E410N (protein)
chain 1: YNSGKLEEFVQGNLERECMEEKCSFEEAREVFENTERTTEFWKQYVDGDQCESNPCLNGGSCKDDINSYECWCPFGFEGKNCELDVTCNIKNGRCEQFCKNSADNKVVCSCTEGYRLAENQKSCEPAVPFPCGRVSVSQTSKLTR
chain 2: VVGGEDAKPGQFPWQVVLNGKVDAFCGGSIVNEKWIVTAAHCVETGVKITVVAGEHNIEETEHTEQNRSVIRIIPHHNYNAAINKYNHDIALLELDEPLVLNSYVTPICIADKEYTNIFLKFGSGYVSGWGRVFHKGYSALVLQYLRVPLVDRATCLRSTKFTIYNNMFCAGFHEGGRDSCQGDSGGPHVTEVEGTSFLTGIISWGEECAMKGKYGIYTKVSRYVNWIKNKTKLT
B2: FIXa-K247N/N249S/R318Y/R338E/T343R/E410N (protein)
chain 1: B1 chain 1
chain 2: B1 chain 2 with R158E, T163R
B3: FIXa variant D104N/K106S/R318Y/R338E/R403E/E410N (mature FIX numbering) (protein)
chain 1: B1 chain 1 with D104N, K106S
chain 2: B1 chain 2 with N67K, S69N, R158E, R223E
B4: FIXa variant R318Y/R338E/R403E (mature FIX numbering) (protein)
chain 1: B1 chain 1
chain 2: B1 chain 2 with N67K, S69N, R158E, R223E, N230E
B5: FIXa-Y155F/K247N/N249S/R318Y/R338E/T343R/E410N (protein)
chain 1: B1 chain 1
chain 2: B1 chain 2 with R158E, T163R
B6: FIXa variant D203N/F205T/R318Y (mature FIX numbering) (protein)
chain 1: B1 chain 1
chain 2: B1 chain 2 with D23N, F25T, N67K, S69N, N230E
B7: FIXa-Y155F/T343R/R403E/E410N (protein)
chain 1: B1 chain 1
chain 2: B1 chain 2 with N67K, S69N, Y138R, T163R, R223E
B8: FIXa-Y155F/K247N/N249S/R338E/T343R/R403E (protein)
chain 1: B1 chain 1
chain 2: B1 chain 2 with Y138R, R158E, T163R, R223E, N230E
B9: FIXa variant Y155F/R318Y/R403E/E410N (mature FIX numbering) (protein)
chain 1: B1 chain 1
chain 2: B1 chain 2 with N67K, S69N, R223E
B10: FIXa-K247N/N249S/R318Y/T343R/E410N (protein)
chain 1: B1 chain 1
chain 2: B1 chain 2 with T163R
B11: FIXa-K247N/N249S/R318Y/T343R/R403E (protein)
chain 1: B1 chain 1
chain 2: B1 chain 2 with T163R, R223E, N230E
B12: FIXa-K247N/N249S/T343R/R403E/E410N (protein)
chain 1: B1 chain 1
chain 2: B1 chain 2 with Y138R, T163R, R223E
B13: FIXa-Y155F/K247N/N249S/R338E/T343R (protein)
chain 1: B1 chain 1
chain 2: B1 chain 2 with Y138R, R158E, T163R, N230E
B14: FIXa variant D104N/K106S/R318Y/R338E/E410N (mature FIX numbering) (protein)
chain 1: B1 chain 1 with D104N, K106S
chain 2: B1 chain 2 with N67K, S69N, R158E
B15: FIXa-Y155F/K247N/N249S/R318Y/T343R/R403E/E410N (protein)
chain 1: B1 chain 1
chain 2: B1 chain 2 with T163R, R223E
B16: FIXa-Y155F/R318Y/R338E/T343R (protein)
chain 1: B1 chain 1
chain 2: B1 chain 2 with N67K, S69N, R158E, T163R, N230E
B17: FIXa variant Y155F/R318Y/R338E/E410N (mature FIX numbering) (protein)
chain 1: B1 chain 1
chain 2: B1 chain 2 with N67K, S69N, R158E
B18: FIXa variant R318Y/R338E/R403E/E410N (mature FIX numbering) (protein)
chain 1: B1 chain 1
chain 2: B1 chain 2 with N67K, S69N, R158E, R223E
B19: FIXa variant D203N/F205T/E410N (mature FIX numbering) (protein)
chain 1: B1 chain 1
chain 2: B1 chain 2 with D23N, F25T, N67K, S69N, Y138R
B20: FIXa-Y155F/K247N/N249S/T343R/R403E/E410N (protein)
chain 1: B1 chain 1
chain 2: B1 chain 2 with Y138R, T163R, R223E
B21: FIXa variant D203N/F205T/K228N (mature FIX numbering) (protein)
chain 1: B1 chain 1
chain 2: B1 chain 2 with D23N, F25T, K48N, N67K, S69N, Y138R, N230E
B22: FIXa-Y155F/R318Y/T343R/R403E (protein)
chain 1: B1 chain 1
chain 2: B1 chain 2 with N67K, S69N, T163R, R223E, N230E
B23: FIXa-Y155F/K247N/N249S/R338E/T343R/E410N (protein)
chain 1: B1 chain 1
chain 2: B1 chain 2 with Y138R, R158E, T163R
B24: FIXa variant Y155F/R338E/R403E/E410N (mature FIX numbering) (protein)
chain 1: B1 chain 1
chain 2: B1 chain 2 with N67K, S69N, Y138R, R158E, R223E
B25: FIXa variant D203N/F205T/R338E (mature FIX numbering) (protein)
chain 1: B1 chain 1
chain 2: B1 chain 2 with D23N, F25T, N67K, S69N, Y138R, R158E, N230E
B26: FIXa-Y155F/K247N/N249S/R338E/R403E (protein)
chain 1: B1 chain 1
chain 2: B1 chain 2 with Y138R, R158E, R223E, N230E
B27: FIXa variant Y155F/R318Y/R338E/R403E (mature FIX numbering) (protein)
chain 1: B1 chain 1
chain 2: B1 chain 2 with N67K, S69N, R158E, R223E, N230E
B28: FIXa-K247N/N249S/R338E/T343R/E410N (protein)
chain 1: B1 chain 1
chain 2: B1 chain 2 with Y138R, R158E, T163R
B29: FIXa-Y155F/K247N/N249S/R338E/E410N (protein)
chain 1: B1 chain 1
chain 2: B1 chain 2 with Y138R, R158E
B30: FIXa variant R318Y/R338E/E410N (mature FIX numbering) (protein)
chain 1: B1 chain 1
chain 2: B1 chain 2 with N67K, S69N, R158E
B31: FIXa-Y155F/K247N/N249S/R318Y/T343R/E410N (protein)
chain 1: B1 chain 1
chain 2: B1 chain 2 with T163R
B32: FIXa variant A103N/N105S/R318Y/R338E/R403E/E410N (mature FIX numbering) (protein)
chain 1: B1 chain 1 with A103N, N105S
chain 2: B1 chain 2 with N67K, S69N, R158E, R223E
B33: FIXa-K247N/N249S/R318Y/T343R/R403E/E410N (protein)
chain 1: B1 chain 1
chain 2: B1 chain 2 with T163R, R223E
B34: FIXa variant R318Y/R403E/E410N (mature FIX numbering) (protein)
chain 1: B1 chain 1
chain 2: B1 chain 2 with N67K, S69N, R223E
B35: FIXa variant R338E/R403E/E410N (mature FIX numbering) (protein)
chain 1: B1 chain 1
chain 2: B1 chain 2 with N67K, S69N, Y138R, R158E, R223E
B36: FIXa variant K228N/R338E/R403E (mature FIX numbering) (protein)
chain 1: B1 chain 1
chain 2: B1 chain 2 with K48N, N67K, S69N, Y138R, R158E, R223E, N230E
B37: FIXa-R318Y/R338E/T343R (protein)
chain 1: B1 chain 1
chain 2: B1 chain 2 with N67K, S69N, R158E, T163R, N230E
B38: FIXa-Y155F/K247N/N249S/R318Y/T343R/R403E (protein)
chain 1: B1 chain 1
chain 2: B1 chain 2 with T163R, R223E, N230E
B39: FIXa variant Y155F/R318Y/R338E/R403E/E410N (mature FIX numbering) (protein)
chain 1: B1 chain 1
chain 2: B1 chain 2 with N67K, S69N, R158E, R223E
B40: FIXa variant D203N/F205T/R338A (mature FIX numbering) (protein)
chain 1: B1 chain 1
chain 2: B1 chain 2 with D23N, F25T, N67K, S69N, Y138R, R158A, N230E
B41: FIXa variant K228N/R318Y/E410N (mature FIX numbering) (protein)
chain 1: B1 chain 1
chain 2: B1 chain 2 with K48N, N67K, S69N
B42: FIXa variant D203N/F205T/R338E/R403E (mature FIX numbering) (protein)
chain 1: B1 chain 1
chain 2: B1 chain 2 with D23N, F25T, N67K, S69N, Y138R, R158E, R223E, N230E

What follows are proteins tested against Factor X (FX), P00742.
Sequence of Factor X (FX), P00742 (P00742 whole entry, looked up): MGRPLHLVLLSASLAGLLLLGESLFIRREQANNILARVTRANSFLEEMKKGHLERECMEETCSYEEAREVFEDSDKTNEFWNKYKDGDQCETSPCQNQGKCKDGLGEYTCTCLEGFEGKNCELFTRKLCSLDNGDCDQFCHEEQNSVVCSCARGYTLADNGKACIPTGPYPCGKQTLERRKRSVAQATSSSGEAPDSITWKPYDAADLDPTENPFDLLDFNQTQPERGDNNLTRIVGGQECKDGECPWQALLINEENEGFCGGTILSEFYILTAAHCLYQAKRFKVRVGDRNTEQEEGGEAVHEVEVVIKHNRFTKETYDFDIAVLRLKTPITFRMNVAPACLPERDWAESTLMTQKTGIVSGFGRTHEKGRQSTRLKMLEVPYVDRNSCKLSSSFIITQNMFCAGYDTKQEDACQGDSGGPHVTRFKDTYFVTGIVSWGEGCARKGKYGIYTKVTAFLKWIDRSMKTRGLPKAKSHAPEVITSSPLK

| Protein | kcat | kcat/KM | KM of FX activation by FIXa in the Xase complex (FVIIIa, PC/PS vesicles, Ca2+) |
| --- | --- | --- | --- |
| B1 | 3.4 s⁻¹ |  |  |
| B2 | 8.8 s⁻¹ | 3.2e+08 M⁻¹ s⁻¹ |  |
| B3 |  |  | 0.0385 µM |
| B4 |  |  | 0.0597 µM |
| B5 | 7.7 s⁻¹ | 5e+08 M⁻¹ s⁻¹ |  |
| B6 |  |  | 0.0475 µM |
| B7 | 6.6 s⁻¹ | 1.5e+08 M⁻¹ s⁻¹ |  |
| B8 | 14.6 s⁻¹ | 5.9e+08 M⁻¹ s⁻¹ |  |
| B9 |  |  | 0.111 µM |
| B10 | 6.1 s⁻¹ | 2e+08 M⁻¹ s⁻¹ |  |
| B11 | 3.7 s⁻¹ | 3.9e+07 M⁻¹ s⁻¹ |  |
| B12 | 8 s⁻¹ | 1.3e+08 M⁻¹ s⁻¹ |  |
| B13 | 10.6 s⁻¹ | 7.3e+08 M⁻¹ s⁻¹ |  |
| B14 |  |  | 0.0189 µM |
| B15 | 9 s⁻¹ | 1.6e+08 M⁻¹ s⁻¹ |  |
| B16 | 7.9 s⁻¹ | 3.6e+08 M⁻¹ s⁻¹ |  |
| B17 |  |  | 0.016 µM |
| B18 |  |  | 0.0432 µM |
| B19 |  |  | 0.0455 µM |
| B20 | 15 s⁻¹ | 2.9e+08 M⁻¹ s⁻¹ |  |
| B21 |  |  | 0.0399 µM |

| Protein | kcat | kcat/KM | KM of FX activation by FIXa in the Xase complex (FVIIIa, PC/PS vesicles, Ca2+) |
| --- | --- | --- | --- |
| B22 | 5 s⁻¹ | 7.1e+07 M⁻¹ s⁻¹ |  |
| B23 | 4.8 s⁻¹ | 1.8e+08 M⁻¹ s⁻¹ |  |
| B24 |  |  | 0.0336 µM |
| B25 |  |  | 0.0241 µM |
| B26 | 5.3 s⁻¹ | 1.4e+08 M⁻¹ s⁻¹ |  |
| B27 |  |  | 0.0671 µM |
| B28 | 7.9 s⁻¹ | 3.1e+08 M⁻¹ s⁻¹ |  |
| B29 | 7.3 s⁻¹ | 4.7e+08 M⁻¹ s⁻¹ |  |
| B30 |  |  | 0.0139 µM |
| B31 | 8.1 s⁻¹ | 3.1e+08 M⁻¹ s⁻¹ |  |
| B32 |  |  | 0.0447 µM |
| B33 | 9.5 s⁻¹ | 1.3e+08 M⁻¹ s⁻¹ |  |
| B34 |  |  | 0.0942 µM |
| B35 |  |  | 0.0367 µM |
| B36 |  |  | 0.0592 µM |
| B37 | 4.5 s⁻¹ | 1.5e+08 M⁻¹ s⁻¹ |  |
| B38 | 7.5 s⁻¹ | 1.3e+08 M⁻¹ s⁻¹ |  |
| B39 |  |  | 0.0304 µM |
| B40 |  |  | 0.0385 µM |
| B41 |  |  | 0.042 µM |
| B42 |  |  | 0.0511 µM |
